First the molecules themselves.
B1: P-selectin glycoprotein ligand-1 (PSGL-1) from activated human T-cells (natural protein, human (endogenous in activated T-cells), UniProt Q14242 42-412, looked up)
chain: QATEYEYLDYDFLPETEPPEMLRNSTDTTPLTGPGTPESTTVEPAARRSTGLDAGGAVTELTTELANMGNLSTDSAAMEIQTTQPAATEAQTTQPVPTEAQTTPLAATEAQTTRLTATEAQTTPLAATEAQTTPPAATEAQTTQPTGLEAQTTAPAAMEAQTTAPAAMEAQTTPPAAMEAQTTQTTAMEAQTTAPEATEAQTTQPTATEAQTTPLAAMEALSTEPSATEALSMEPTTKRGLFIPFSVSSVTHKGIPMAASNLSVNYPVGAPDHISVKQCLLAILILALVATIFFVCTVVLAVRLSRKGHMYPVRNYSPTEMVCISSLLPDGGEGPSATANGGLSKAKSPGLTPEPREDREGDDLTLHSFLP
modifications: O-glycans
notes: P-selectin glycoprotein ligand-1 (CD162), human; also called CD162
B2: recombinant mouse E-selectin/CD62E Fc chimera (E-Ig) (Fc fusion, UniProt Q00690 22-557, looked up)
chain: WYYNASSELMTYDEASAYCQRDYTHLVAIQNKEEINYLNSNLKHSPSYYWIGIRKVNNVWIWVGTGKPLTEEAQNWAPGEPNNKQRNEDCVEIYIQRTKDSGMWNDERCNKKKLALCYTASCTNASCSGHGECIETINSYTCKCHPGFLGPNCEQAVTCKPQEHPDYGSLNCSHPFGPFSYNSSCSFGCKRGYLPSSMETTVRCTSSGEWSAPAPACHVVECEALTHPAHGIRKCSSNPGSYPWNTTCTFDCVEGYRRVGAQNLQCTSSGIWDNETPSCKAVTCDAIPQPQNGFVSCSHSTAGELAFKSSCNFTCEQSFTLQGPAQVECSAQGQWTPQIPVCKAVQCEALSAPQQGNMKCLPSASGPFQNGSSCEFSCEEGFELKGSRRLQCGPRGEWDSKKPTCSAVKCDDVPRPQNGVMECAHATTGEFTYKSSCAFQCNEGFSLHGSAQLECTSQGKWTQEVPSCQVVQCPSLDVPGKMNMSCSGTAVFGTVCEFTCPDDWTLNGSAVLTCGATGRWSGMPPTCEAPVSPTRP
notes: E-selectin (CD62E), mouse; Mouse is named only in the flow cytometry methods; also called E-selectin-hIg chimera; recombinant E-selectin–Ig chimera; source: bought: R&D

The target of assay [1] is B2. Briefly: SPR; BIAcore CM5 chip; CD44 and PSGL-1 captured from activated T-cell lysate by immobilised mAbs; 10 E-Ig concentrations (0.456-466.7 nM) injected at 30 ul/min in 150 mM NaCl running buffer; KD from steady-state fit; apparent koff from the buffer wash after the last injection; apparent kon calculated (Eq. 1 in Supplementary Material); isotype control subtracted. Conditions: both partners purified.

The target of assay [2] is B1. The description is as above. As to conditions: both partners purified.
The target in assay [3] is CD44/HCELL from activated human T-cells (human (endogenous in activated T-cells)). Described as above.
Assay [4] has the same target.

For the molecule B1, in assay [1], the Kd is 467 nM, the dissociation rate constant (koff) is 2.5e-05 s⁻¹ and the kon was 52 M⁻¹ s⁻¹.
As to B2, in assay [2], the “stoichiometry N” value is ≥ 2 E-selectin dimers per PSGL-1 dimer. In assay [3], the Kd was 777 nM, the koff is 4.9e-05 s⁻¹ and the association rate constant (kon) was 61 M⁻¹ s⁻¹.

B3: E-selectin on CHO cells expressing E-selectin (CHO-E) (receptor)
chain: WSYNTSTEAMTYDEASAYCQQRYTHLVAIQNKEEIEYLNSILSYSPSYYWIGIRKVNNVWVWVGTQKPLTEEAKNWAPGEPNNRQKDEDCVEIYIKREKDVGMWNDERCSKKKLALCYTAACTNTSCSGHGECVETINNYTCKCDPGFSGLKCEQIVNCTALESPEHGSLVCSHPLGNFSYNSSCSISCDRGYLPSSMETMQCMSSGEWSAPIPACNVVECDAVTNPANGFVECFQNPGSFPWNTTCTFDCEEGFELMGAQSLQCTSSGNWDNEKPTCKAVTCRAVRQPQNGSVRCSHSPAGEFTFKSSCNFTCEEGFMLQGPAQVECTTQGQWTQQIPVCEAFQCTALSNPERGYMNCLPSASGSFRYGSSCEFSCEQGFVLKGSKRLQCGPTGEWDNEKPTCEAVRCDAVHQPPKGLVRCAHSPIGEFTYKSSCAFSCEEGFELHGSTQLECTSQGQWTEEVPSCQVVKCSSLAVPGKINMSCSGEPVFGTVCKFACPEGWTLNGSAARTCGATGHWSGLLPTCEAPTESNIPLVAGLSAAGLSLLTLAPFLLWLRKCLRKAKKFVPASSCQSLESDGSYQKPSYIL
B3 gave an average velocity of CHO-E cells rolling over the immuno-purified ligand on a blot (blot rolling assay, 0.5 dyn cm^-2, 2 mM Ca2+) in assay [4] of 3.3.
